For the data set, the target named is hMutLγ (MLH1-MLH3) (human, UniProt P40692;Q9UHC1 1-756;1-1453). As to the kind of experiment: EMSA. (A gel shift assay detects complexes by their altered migration in electrophoresis.)
Sequence of hMutLγ (MLH1-MLH3) (P40692 whole entry, chain 1 of 2): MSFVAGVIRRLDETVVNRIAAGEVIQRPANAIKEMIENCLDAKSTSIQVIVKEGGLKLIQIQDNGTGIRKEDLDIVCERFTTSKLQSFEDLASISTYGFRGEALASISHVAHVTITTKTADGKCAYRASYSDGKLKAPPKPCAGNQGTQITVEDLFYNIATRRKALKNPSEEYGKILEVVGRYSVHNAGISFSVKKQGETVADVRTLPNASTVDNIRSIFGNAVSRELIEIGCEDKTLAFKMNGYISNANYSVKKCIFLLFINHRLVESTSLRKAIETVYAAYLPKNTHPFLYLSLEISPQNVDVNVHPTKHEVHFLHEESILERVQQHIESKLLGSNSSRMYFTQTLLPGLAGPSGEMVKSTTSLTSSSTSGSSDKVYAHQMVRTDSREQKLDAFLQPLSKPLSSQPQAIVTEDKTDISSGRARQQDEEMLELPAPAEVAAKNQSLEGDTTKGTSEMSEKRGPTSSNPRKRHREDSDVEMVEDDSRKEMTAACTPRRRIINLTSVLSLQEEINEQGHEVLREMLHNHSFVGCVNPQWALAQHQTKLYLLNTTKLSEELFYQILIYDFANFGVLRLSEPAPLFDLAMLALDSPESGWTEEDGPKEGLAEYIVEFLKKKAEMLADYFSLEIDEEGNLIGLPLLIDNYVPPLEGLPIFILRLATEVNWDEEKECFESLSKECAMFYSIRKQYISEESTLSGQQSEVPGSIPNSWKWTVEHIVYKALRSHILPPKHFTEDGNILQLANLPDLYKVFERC
Sequence of hMutLγ (MLH1-MLH3) (Q9UHC1 whole entry, chain 2 of 2): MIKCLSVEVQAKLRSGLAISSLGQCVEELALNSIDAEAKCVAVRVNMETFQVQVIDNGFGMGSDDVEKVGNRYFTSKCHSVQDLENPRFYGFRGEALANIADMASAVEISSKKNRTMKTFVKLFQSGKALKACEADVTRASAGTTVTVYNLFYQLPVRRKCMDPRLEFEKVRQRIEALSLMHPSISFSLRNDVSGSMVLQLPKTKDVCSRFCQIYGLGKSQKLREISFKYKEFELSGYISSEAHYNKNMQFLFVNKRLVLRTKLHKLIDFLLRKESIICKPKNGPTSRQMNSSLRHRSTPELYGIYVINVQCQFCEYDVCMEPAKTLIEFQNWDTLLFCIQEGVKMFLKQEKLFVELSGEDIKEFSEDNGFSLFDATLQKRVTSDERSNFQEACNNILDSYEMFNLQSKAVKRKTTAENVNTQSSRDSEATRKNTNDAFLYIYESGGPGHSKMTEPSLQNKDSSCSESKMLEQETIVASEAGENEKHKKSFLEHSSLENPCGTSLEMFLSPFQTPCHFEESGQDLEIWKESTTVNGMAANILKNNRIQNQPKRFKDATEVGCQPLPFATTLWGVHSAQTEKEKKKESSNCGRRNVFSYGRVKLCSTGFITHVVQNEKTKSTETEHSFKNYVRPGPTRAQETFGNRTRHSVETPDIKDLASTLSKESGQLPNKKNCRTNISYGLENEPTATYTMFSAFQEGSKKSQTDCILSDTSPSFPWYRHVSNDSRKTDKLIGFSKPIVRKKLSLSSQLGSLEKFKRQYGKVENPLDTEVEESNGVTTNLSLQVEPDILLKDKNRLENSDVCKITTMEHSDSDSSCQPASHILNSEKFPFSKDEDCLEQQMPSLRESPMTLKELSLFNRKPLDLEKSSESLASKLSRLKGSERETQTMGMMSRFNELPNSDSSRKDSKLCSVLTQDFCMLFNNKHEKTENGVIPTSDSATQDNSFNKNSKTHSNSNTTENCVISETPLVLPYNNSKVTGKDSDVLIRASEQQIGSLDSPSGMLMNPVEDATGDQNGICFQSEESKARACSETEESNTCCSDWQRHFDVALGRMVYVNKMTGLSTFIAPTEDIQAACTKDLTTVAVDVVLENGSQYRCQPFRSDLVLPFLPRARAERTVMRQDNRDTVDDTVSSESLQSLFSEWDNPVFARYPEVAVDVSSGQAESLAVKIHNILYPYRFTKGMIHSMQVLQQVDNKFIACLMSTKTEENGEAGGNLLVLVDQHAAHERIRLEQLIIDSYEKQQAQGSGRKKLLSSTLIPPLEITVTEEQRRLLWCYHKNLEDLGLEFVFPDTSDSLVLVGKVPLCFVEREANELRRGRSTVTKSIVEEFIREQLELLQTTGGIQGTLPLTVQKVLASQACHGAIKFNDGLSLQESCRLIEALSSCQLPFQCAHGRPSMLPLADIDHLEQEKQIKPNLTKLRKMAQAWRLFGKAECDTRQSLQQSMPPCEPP

With TTTTTTTTTTTTTTTTTTTTTTTTTTTTTTTTTTTTTTTT (ssDNA) [40 nt poly-dT ssDNA (dT40)], the binding result was “binds”.

For the origin of these results see article doi:10.1101/2020.02.12.946020.
